Bridge positions count the residues as written; N and C are the ends. Ends that are not written are not given here.
B1: GASTTCLEKYRERQWCKELT (peptide)
chain: GASTTCLEKYRERQWCKELTGGGSGGGAEGDDPAKAAFNSLQASATEYIGYAWAMVVVIVGATIGIKLFKKFTSKAS
notes: naive clone; polyvalent P8 display on phage; STII signal left out
B2: GIREELCDKGLHKMCFREVR (peptide)
chain: GIREELCDKGLHKMCFREVRGGGSGGGAEGDDPAKAAFNSLQASATEYIGYAWAMVVVIVGATIGIKLFKKFTSKAS
notes: as for B1
B3: GAQAWLCEQREEWCGQMLGT (peptide)
chain: GAQAWLCEQREEWCGQMLGTGGGSGGGAEGDDPAKAAFNSLQASATEYIGYAWAMVVVIVGATIGIKLFKKFTSKAS
notes: as for B1
B4: TAGIECAYDKHLDQYCWWKE (peptide)
chain: TAGIECAYDKHLDQYCWWKEGGGSGGGAEGDDPAKAAFNSLQASATEYIGYAWAMVVVIVGATIGIKLFKKFTSKAS
notes: as for B1
B5: HWDWTGGYWWIGREPWKEAA (peptide)
chain: HWDWTGGYWWIGREPWKEAAGGGSGGGAEGDDPAKAAFNSLQASATEYIGYAWAMVVVIVGATIGIKLFKKFTSKAS
notes: as for B1
B6: VMDQCFESYAEMRKCMLDGS (peptide)
chain: VMDQCFESYAEMRKCMLDGSGGGSGGGAEGDDPAKAAFNSLQASATEYIGYAWAMVVVIVGATIGIKLFKKFTSKAS
notes: as for B1
B7: GEAAECAYDSLGMAYCYAKE (peptide)
chain: GEAAECAYDSLGMAYCYAKEGGGSGGGAEGDDPAKAAFNSLQASATEYIGYAWAMVVVIVGATIGIKLFKKFTSKAS
notes: as for B1
B8: IECWQDLQGTRLCWE (peptide)
chain: IECWQDLQGTRLCWEGGGSGGGAEGDDPAKAAFNSLQASATEYIGYAWAMVVVIVGATIGIKLFKKFTSKAS
notes: as for B1
B9: YDWVEACQKWPVLCMDSTMY (peptide)
chain: YDWVEACQKWPVLCMDSTMYGGGSGGGAEGDDPAKAAFNSLQASATEYIGYAWAMVVVIVGATIGIKLFKKFTSKAS
notes: as for B1
B10: DAMDCVVGPEWRKCFLEG (peptide)
chain: DAMDCVVGPEWRKCFLEGGGGSGGGAEGDDPAKAAFNSLQASATEYIGYAWAMVVVIVGATIGIKLFKKFTSKAS
notes: as for B1
B11: CECGKVSSRGCEKLCWLVSYM (peptide)
chain: CECGKVSSRGCEKLCWLVSYMGGGSGGGAEGDDPAKAAFNSLQASATEYIGYAWAMVVVIVGATIGIKLFKKFTSKAS
notes: as for B1
B12: QIPAGCYESVQSLLECVQSA (peptide)
chain: QIPAGCYESVQSLLECVQSAGGGSGGGAEGDDPAKAAFNSLQASATEYIGYAWAMVVVIVGATIGIKLFKKFTSKAS
notes: as for B1

Tests used:
[1] = biological target: T1, IGF-1 (human, UniProt P05019 49-118); experiment: monovalent phage ELISA; soluble IGF-1 titrated against peptide-phage binding to immobilised IGF-1
T1 sequence (P05019 49-118): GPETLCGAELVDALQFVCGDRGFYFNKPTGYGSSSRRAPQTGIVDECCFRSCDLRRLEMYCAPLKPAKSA

[2] = biological target: T1, IGF-1; experiment: phage ELISA, IGF-1 on plate
Method: (§1) From each round, individual peptide-displaying phage were isolated and analyzed for binding to IGF-1 in a phage ELISA by capturing the peptide-phage with IGF-1 immobilized on a plate, and detecting bound phage (see below). As a control for non-specific binding, the phage were also analyzed in a phage ELISA that used plates coated with BSA. […]
(§2) MAXISORP™ immunoplates (96-well) were coated with capture target protein for 2 hours at room temperature (100 μL at 5 μg/mL in 50 mM carbonate buffer, pH 9.6). The plates were then blocked for 1 h with 0.2% BSA in phosphate-buffered saline (PBS) and washed eight times with PBS, 0.05% TWEEN®-20 detergent. Phage particles were serially diluted into BSA blocking buffer and 100 μL were transferred to coated wells. After I h, plates were washed eight times with PBS, 0.05% TWEEN®-20 detergent, incubated with 100 μL of 1:3000 horse radish peroxidase/anti-M 13 antibody conjugate in BSA blocking buffer for 30 min. and then washed eight times with PBS, 0.05% TWEEN®-20 detergent and two times with PBS. Plates were developed using a tetramethylbenzidine substrate (TMB, Kirkegaard and Perry, Gaithersburg, Md.), stopped with 1.0 M H3PO₄, and read spectrophotometrically at 450 nm.

[3] = biological target: BSA (UniProt P02769 25-607); experiment: phage ELISA, BSA on plate
Chain of BSA (P02769 25-607 limits assumed): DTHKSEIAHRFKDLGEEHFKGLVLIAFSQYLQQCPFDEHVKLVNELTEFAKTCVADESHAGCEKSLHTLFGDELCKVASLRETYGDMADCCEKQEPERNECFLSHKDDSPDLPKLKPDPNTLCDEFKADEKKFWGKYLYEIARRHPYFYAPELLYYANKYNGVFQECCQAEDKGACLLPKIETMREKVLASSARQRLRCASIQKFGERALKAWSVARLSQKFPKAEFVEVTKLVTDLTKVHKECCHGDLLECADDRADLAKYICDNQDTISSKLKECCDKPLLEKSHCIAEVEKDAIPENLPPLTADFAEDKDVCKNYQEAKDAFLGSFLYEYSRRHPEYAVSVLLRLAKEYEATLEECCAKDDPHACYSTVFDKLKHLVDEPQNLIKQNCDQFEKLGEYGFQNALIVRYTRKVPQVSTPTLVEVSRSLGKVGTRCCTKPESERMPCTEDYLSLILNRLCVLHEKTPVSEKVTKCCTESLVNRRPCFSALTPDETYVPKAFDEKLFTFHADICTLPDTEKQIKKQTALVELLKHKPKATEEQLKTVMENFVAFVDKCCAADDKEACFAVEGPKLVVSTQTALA
Method: as §1, §2

[4] = biological target: T2, phage displaying human IGF-1 (phage vector pIGF-g3) (human, UniProt P05019 49-118); experiment: competition phage ELISA: peptide against IGF-1 phage binding to IGFBP-3 on plate
T2 construct: Construct as in Dubaquie and Lowman; also called IGF-1 displaying phage; Phage IGF-1; not shown: g3 of the phage vector pIGF-g3 (M13 gene III protein)
T2 sequence (P05019 49-118 limits assumed): as the sequence (P05019 49-118) above
Method: (§3) The IGF-1 displaying phage was titered against IGF bp1 and bp3 for a 500-1000× dilution for preincubation with serial dilutions the synthesized peptides and binding protein standards for 45 minutes. Immunosorbant plates were coated with IGF binding proteins and blocked with 0.5% TWEEN®-20 detergent and PBS and washed as above. The samples were added to the plates for 20 minutes, washed and detected as above. The experimental IC50 values are in Table 5.

[5] = biological target: T1, IGF-1; experiment: cell-based or functional assay
[6] = biological target: T1, IGF-1; experiment: displacement of 125I-IGF-1 (2 nM) from receptors on MCF-7 cells
Method: Cell were passaged weekly in media containing a 50/50 mix of high-glucose DMEM/ Ham's F12, with 10% fet al bovine serum and 10 mM HEPES pH 7.2. Cells were plated and grown overnight maintained at 37° C. and 5% CO₂. For IGF-1 iodination, 50 μg of IGF-1 was diluted into 200 μL of PBS and added to a tube coated with 100 μg of IODOGEN® 1,3,4,6-tetrachloro-3a-6β-diphenylglycouril) (Pierce Chemical Co.), incubated with 1 mCi of ¹²²⁵-Nal (10 μL) at room temperature for 10-15 minutes. Synthesized peptides and binding protein controls were preincubated with 2 nm ¹²⁵I IGF-1 for 40 minutes at 37° C. The samples were added to cells for 30 minutes. The cells were washed with media and lysed with 1N NaOH.

[7] = biological target: T2, phage displaying human IGF-1 (phage …); experiment: competition phage ELISA: peptide against IGF-1 phage binding to IGFBP-1 on plate
Method: as §3

Molecule	binding result [2]	binding result [3]	Insulin KIRA [5] [µM]	also measured
… (from UniProt P01241 27-217) (peptide)				IC50 [1]: 209 µM
B1	binds	no binding		
B2	binds	no binding		
B3	binds	no binding		
MDCLASVEALKWCMYG (synthetic peptide) [F1-2]			32.6	IC50 [4]: 9.2 µM; IGF-1 KIRA [5]: 20 µM; IC50 [6]: 15.3 µM; IC50 [7]: 15.5 µM
B4	binds	no binding		
ARCVVDAGGTWYCWAG [F2-P]			300	
FECLTSVEALRGCMYG (synthetic peptide) [F1-3]			66.1	IC50 [4]: 12.8 µM; IGF-1 KIRA [5]: 102 µM; IC50 [6]: 45.7 µM; IC50 [7]: 11.7 µM
B5	binds	no binding		
B6	binds	no binding		
B7	binds	no binding		
B8	binds	no binding		
RNCFESVAALRRCMYG (disulfide 3-13, synthetic peptide; also called IGF-F1-1) [F1-1]			5.48	IC50 [4]: 2.93 µM; IGF-1 KIRA [5]: 84.9 µM; IC50 [6]: 5.12 µM; IC50 [7]: 1.4 µM
B9	binds	no binding		
B10	binds	no binding		
WRCVDDLGGFQYCWAG [F2-2]			93.6	IGF-1 KIRA [5]: 130 µM
B11	binds	no binding		
LGCASDLAGFWYCWAG [F2-1]			40.4	
B12	binds	no binding		
DECLMSVEALKNCMGG [F1-P]			183	IGF-1 KIRA [5]: 400 µM
